# Laboratory results: paper PMC2757159
# Experiments:
# [1] = target: human copper chaperone for SOD1 (human); assay: SEC
# [2] = target: human copper chaperone for SOD1 (human); assay: SEC; remark: listed apart in the source
# [3] = target: yeast copper chaperone for SOD1 (yeast); assay: native gel or EMSA
# [4] = target: human copper chaperone for SOD1 (human); assay: native gel or EMSA
Substance,stoichiometry N [1],stoichiometry N [2],stoichiometry N [3],stoichiometry N [4]
human copper chaperone for SOD1 (natural protein),4,4,,
human H46R/H48Q copper-zinc superoxide dismutase (SOD1) double mutant (from UniProt P00441 1-154) (enzyme),,,1 SOD1:CCS,1 SOD1:CCS
